Positions count from the first letter of the chain named.
B1: mAb 3D3 (antibody, V domains shown)
VH: EEQLVESGGGLVQPGRSLRLSCVGSGLRFEEHAMHWVRQAPGRGLEWVSGISWNSGSVGYADSVKGRFTTSRDNAKDILFLEMNTLRSEDTALYFCAIMVATTKNDFHYYKDVWGKGTTVTVSS
VL: QIVLTQSPATLSLSPGERATLSCRASQSVSNHLAWYQQKPGQAPRLLIYETSNRATGIPPRFSGSGSGTDFTLTISSLEPEDFAVYYCQQRNNWYTFGQGTKLEIK
B2: RSV G (CCR) variant S177→W (peptide)
peptide: NDFHFEVFNFVPCSICWNNPTCWAICKRIPNKKPGKK
B3: RSV G (CCR) variant H164→Y (peptide)
peptide: B2 peptide with H4Y, W17S
B4: Wild type RSV G (CCR) (peptide)
peptide: B2 peptide with W17S
B5: RSV G (CCR) variant S177→R (peptide)
peptide: B2 peptide with W17R
B6: RSV G (CCR) variant E166→K + K187 →E (peptide)
peptide: B2 peptide with E6K, W17S, K27E
B7: RSV G (CCR) variant K192→E + K193 →E (peptide)
peptide: B2 peptide with W17S, K32E, K33E
B8: RSV G (CCR) variant E166→K (peptide)
peptide: B2 peptide with E6K, W17S
B9: mAb 2D10 (antibody, V domains shown)
VH: QVQLVQSGPEVKKPGASVRLSCKASGYVFTNYGVSWVRQAPGQGLEWMGWSSPYNGNTYYAQKLKARVTMTTDTSTNTAYMELRSLRSDDTAVYYCGRDMLGVVQAVAGPFDSWGQGTLVTVSS
VL: DTPMTQSPSSVSASVGDRVTISCRASQGISNSLAWYQQKLGKAPQLLIYAASSLQSGVPSRFSGSGSGTDFTLTISSLQPEDFATYYCQQTNTFPFTFGPGTKVEVRR
B10: RSV G ectodomain (G[ecto]) (other)
chain: SANHKVTPTTAIIQDATSQIKNTTPTYLTQNPQLGISPSNPSEITSQITTILASTTPGVKSTLQSTTVKTKNTTTTQTQPSKPTTKQRQNKPPSKPNNDFHFEVFNFVPCSICSNNPTCWAICKRIPNKKPGKKTTTKPTKKPTLKTTKKDPKPQTTKSKEVPTTKPTEEPTINTTKTNIITTLLTSNTTGNPELTSQMETFHSTSSEGNPSPSQVSTTSEYPSQPSSPPNTPRQHHHHHHGWSHPQFEKGGGSGGGSGGGSWSHPQFEK
B11: RSV G[161-197] (peptide)
peptide: MGNDFHFEVFNFVPCSICSNNPTCWAICKRIPNKKPGKKHHHHHH
B12: scFv 2D10 (scFv)
scFv: QVQLVQSGPEVKKPGASVRLSCKASGYVFTNYGVSWVRQAPGQGLEWMGWSSPYNGNTYYAQKLKARVTMTTDTSTNTAYMELRSLRSDDTAVYYCGRDMLGVVQAVAGPFDSWGQGTLVTVSSASGGGGSGGGGSGGGGSGGGDTPMTQSPSSVSASVGDRVTISCRASQGISNSLAWYQQKLGKAPQLLIYAASSLQSGVPSRFSGSGSGTDFTLTISSLQPEDFATYYCQQTNTFPFTFGPGTKVEVRR
notes: Expressed in Drosophila S2 cells with BiP signal; Twin-Strep tag removed with thrombin before use; A few vector residues probably remain at both ends (RS; ASLVPR); also called recombinant single-chain variable fragment (scFv) of 2D10

Experiments:
CX3CR1 (human) = CX3CR1 (human) (UniProt P49238); assay: cell-based or functional assay; conditions: scale: chemotactic index
RSV G[161-197] = target: B11; assay: cell-based or functional assay
CX3CR1 [1] = target: T1, CX3CR1 (human, UniProt P49238 1-355); assay: cell-based or functional assay
T1 sequence: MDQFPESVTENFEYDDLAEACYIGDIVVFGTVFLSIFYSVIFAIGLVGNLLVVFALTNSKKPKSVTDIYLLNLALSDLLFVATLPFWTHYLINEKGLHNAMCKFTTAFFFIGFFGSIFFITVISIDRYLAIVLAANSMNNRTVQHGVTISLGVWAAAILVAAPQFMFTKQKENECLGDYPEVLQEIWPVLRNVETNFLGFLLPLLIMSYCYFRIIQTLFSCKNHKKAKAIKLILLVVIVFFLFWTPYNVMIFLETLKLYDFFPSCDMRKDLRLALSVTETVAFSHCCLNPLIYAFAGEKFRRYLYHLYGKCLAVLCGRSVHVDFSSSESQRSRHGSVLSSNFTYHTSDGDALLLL

CX3CR1 [2] = target: T1, CX3CR1; assay: cell-based or functional assay; remark: listed apart in the source
RSV G[169-198] = target: T2, RSV G[169-198] (respiratory syncytial virus); assay: complex formation and X-ray crystal structure
T2 construct: also called synthetic RSV G peptide
T2 peptide: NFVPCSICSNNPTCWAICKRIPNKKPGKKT
Text: Diffraction data from a single crystal were processed with HKL2000.

Row | Molecule | Chemotactic activity (THP-1 chemotaxis assay, duplicate assays, standard deviation in parentheses) (CX3CR1 [1]) | further results
1 | anti-CX3CR1 rabbit polyclonal antibody (ThermoFisher Scientific Cat# PAS-19910) |  | chemotactic index of THP-1 cells pre-incubated with anti-CX3CR1 antibody, toward 5 nM RSV G[161-197] (CX3CR1 (human)): 1.1
2 | B1 |  | chemotactic index of THP-1 cells toward 5 nM RSV G[161-197] pre-incubated with 25 nM mAb (RSV G[161-197]): 1.5 chemotactic index (fold over serum-free media)
3 | B2 | 1.2 chemotactic index (negative control PBS = 1.0) | 
4 | B3 | 3.8 chemotactic index (negative control PBS = 1.0) | 
5 | B4 | 6.2 chemotactic index (negative control PBS = 1.0) | 
6 | B5 | 0.9 chemotactic index (negative control PBS = 1.0) | 
7 | B6 | 1.8 chemotactic index (negative control PBS = 1.0) | 
8 | B7 | 2.5 chemotactic index (negative control PBS = 1.0) | 
9 | B8 | 1.6 chemotactic index (negative control PBS = 1.0) | 
10 | B9 |  | chemotactic index of THP-1 cells toward 5 nM RSV G[161-197] pre-incubated with 25 nM mAb (RSV G[161-197]): 1 chemotactic index (fold over serum-free media)
11 | B10 |  | chemotactic index of THP-1 cells toward 5 nM RSV G[ecto] (CX3CR1 [2]): 3.9 chemotactic index (fold over serum-free media)
12 | B11 |  | chemotactic index of THP-1 cells toward 5 nM RSV G[161-197] (CX3CR1 [2]): 4.2 chemotactic index (fold over serum-free media)
13 | B12 |  | binding result (RSV G[169-198]): binds
